Patent US20230071609A1 (Genentech, published 2023)

Target: T1, iAPOL1-G0 in podocytes (EIK variant, doxycycline-inducible, in APOL1 KO podocytes) (human, UniProt O14791 29-398)
T1 construct: Stably re-expressed untagged APOL1 isoform A in APOL1 KO clone 89401-3; also called iAPOL1-G0 podocytes; iAPOL1 podocytes
T1 chain: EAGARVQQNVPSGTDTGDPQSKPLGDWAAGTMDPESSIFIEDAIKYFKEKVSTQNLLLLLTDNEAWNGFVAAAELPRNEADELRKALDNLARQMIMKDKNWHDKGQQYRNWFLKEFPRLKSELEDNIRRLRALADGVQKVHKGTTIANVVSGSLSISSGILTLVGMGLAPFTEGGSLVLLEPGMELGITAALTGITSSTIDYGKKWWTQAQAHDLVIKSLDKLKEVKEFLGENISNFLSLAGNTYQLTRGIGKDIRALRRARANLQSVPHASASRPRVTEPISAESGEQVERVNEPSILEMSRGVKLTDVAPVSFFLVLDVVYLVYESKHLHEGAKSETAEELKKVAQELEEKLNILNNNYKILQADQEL
Experiment: flow cytometry, iAPOL1-G0 podocytes, 1 µg/ml
Protocol: APOL1 KO (black line) is completely negative, overlapping with Alexa488 anti-mouse secondary alone (grey line) as expected. A representative histogram from 3-4 experiments is shown.
Cells were harvested with 5 mM EDTA in PBS, washed once with growth media and twice with PBS. Approximately 0.5×10⁶/m1 of cells resuspended in PBS were incubated with anti-APOL1 antibodies for 1 h on ice. Following two PBS washes, 2 μg/ml of Alexa488 anti-mouse or anti-rabbit (Invitrogen A11029 and A21206, respectively) was used for 1 h on ice for detection. Cells were washed twice in PBS and resuspended in PBS with 1 μg/ml propidium iodide. Signals were read in a FACSCalibur3 (Becton Dickinson), with the exception of FIG. 8A and FIG. 14, which used a FACSCelesta, and data was analyzed using FlowJo v8.4.5. Mean fluorescence intensities were plotted in PRISM v7 after subtraction of secondary antibody alone background. For low pH experiments, cells were incubated with the antibodies in the presence of PBS pH 7.0 or PBS pH 5.5 for an hour on ice and detected with secondary antibodies at neutral pH.

B1: antibody 3.7D6 (antibody, V domains shown)
VH: QIQLVQSGPDLKKPGETVKISCRTSGYAFTNYGVNWVKQAPGKGLKWMGWINTNTGQTTYAEEFRGRFAISLETSASTAFLTISNLKNEDSATYFCARLIYDGDYISSDFWGQGTTLTVSS
VL: DIQMTQSPDSLSASVGETVTITCGASENIYGALNWYQRKQGKSPQLLIYGATNLADGMSSRFSGSRSGRQYSLKISSLHPDDVATYYCQNALSMPYTFGGGTKLEIKR
notes: Mouse mAb, cloned as murine IgG2a LALAPG; those versions are not written separately; also called PFD antibody 3.7D6
binding result: binds
